Measured values taken from the supplement of paper PMC10567573.

B1: CHCHD6 (parent)
chain: MYKLSSEQFHEAASKMESTIKPRR

Variants of: B1
Assay: protein stability index of a GFP-peptide fusion (GPS, HEK-293T) (PSI 1-6); higher = more stable
Conditions: c terminus: a fixed tail appended
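Note: lentivirally expressed fusions sorted by FACS into six bins by GFP to DsRed ratio, PSI derived from sequencing read proportions per bin multiplied by bin number.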

| Variant | protein stability index |
| --- | --- |
| S5L | 3.02 |
| S5I | 2.65 |
| S5P | 3.17 |
| S5K | 3.56 |
| S5W | 3.17 |
| S5R | 3.94 |
| S5A | 4.02 |
| S5G | 4.68 |
| S5Q | 3.78 |
| S5V | 3.43 |
| S5C | 3.14 |
| S5T | 3.64 |
| S5F | 2.82 |
| S5N | 4.06 |
| S5M | 3.87 |
| S5D | 4.06 |
| E11R | 3.35 |
| E11Y | 3.52 |
| E11V | 3.4 |
| E11C | 3.06 |
| E11K | 3.69 |
| E11S | 3.37 |
| E11G | 3.8 |
| E11P | 3.6 |

| Variant | protein stability index |
| --- | --- |
| E11W | 2.77 |
| E11D | 3.65 |
| E11T | 3.75 |
| E11Q | 3.69 |
| E11H | 3.22 |
| E11L | 3.26 |
| E11I | 3.34 |
| E11A | 2.99 |
| E11F | 2.65 |
| E11M | 3.28 |
| E11N | 3.4 |
| F9M | 4.28 |
| F9G | 4.21 |
| F9S | 4.81 |
| F9I | 4.06 |
| F9T | 4.2 |
| F9A | 4.03 |
| F9R | 4.25 |
| F9P | 4.68 |
| F9L | 3.36 |
| F9V | 3.36 |
| F9E | 4.43 |
| F9N | 4.64 |
| F9W | 3.23 |

| Variant | protein stability index |
| --- | --- |
| F9K | 4.58 |
| F9D | 4.82 |
| F9Q | 4.12 |
| F9C | 3.83 |
| F9Y | 3.98 |
| F9H | 4.32 |
| Y2G | 4.48 |
| Y2C | 3.53 |
| Y2N | 4.51 |
| Y2D | 4.83 |
| Y2E | 4.42 |
| Y2V | 4.05 |
| Y2I | 3.98 |
| Y2A | 4.55 |
| Y2S | 4.5 |
| Y2H | 4.44 |
| Y2M | 4.45 |
| Y2L | 4.34 |
| Y2W | 2.58 |
| Y2T | 3.29 |
| Y2R | 4.7 |
| Y2Q | 4.25 |
| Y2K | 4.7 |
| Y2F | 4.01 |

| Variant | protein stability index |
| --- | --- |
| Y2P | 4.77 |
| H10L | 3.69 |
| H10W | 2.54 |
| H10M | 3.37 |
| H10T | 3.3 |
| H10G | 4.28 |
| H10Q | 3.98 |
| H10C | 3.93 |
| H10P | 4.08 |
| H10S | 4.15 |
| H10V | 3.78 |
| H10R | 3.82 |
| H10Y | 3.52 |
| H10A | 3.66 |
| H10F | 3.44 |
| H10N | 3.41 |
| H10K | 4 |
| H10I | 3.08 |
| H10D | 4.15 |
| H10E | 4.24 |
| E7Y | 2.82 |
| E7D | 3.7 |
| E7R | 2.96 |
| E7V | 3.44 |

| Variant | protein stability index |
| --- | --- |
| E7F | 3.1 |
| E7C | 3.29 |
| E7L | 3.71 |
| E7M | 2.97 |
| E7N | 3.58 |
| E7A | 3.6 |
| E7I | 3.1 |
| E7Q | 3.58 |
| E7S | 3.79 |
| E7K | 3.71 |
| E7P | 3.64 |
| E7T | 3.2 |
| E7H | 3.44 |
| E7W | 2.56 |
| E7G | 4.39 |
| A12D | 4.17 |
| A12N | 2.9 |
| A12P | 4.23 |
| A12G | 3.69 |
| A12L | 2.92 |
| A12R | 3.55 |
| A12Y | 3.39 |
| A12T | 3.75 |
| A12S | 3.97 |

| Variant | protein stability index |
| --- | --- |
| A12M | 3.14 |
| A12E | 4.56 |
| A12I | 2.88 |
| A12F | 3.27 |
| A12H | 4.12 |
| A12W | 2.55 |
| A12C | 3.31 |
| A12V | 3.58 |
| A12Q | 4.04 |
| A12K | 3.59 |
| K3T | 3.73 |
| K3L | 2.66 |
| K3I | 2.59 |
| K3Y | 3.08 |
| K3F | 2.55 |
| K3D | 3.84 |
| K3A | 4.56 |
| K3C | 3.63 |
| K3V | 2.7 |
| K3Q | 4.17 |
| K3S | 2.47 |
| K3E | 3.66 |
| K3W | 2.94 |
| K3R | 3.6 |

| Variant | protein stability index |
| --- | --- |
| K3G | 4.46 |
| K3H | 3.98 |
| K3P | 4.17 |
| K3M | 3.7 |
| K3N | 3.68 |
| L4W | 3.77 |
| L4Y | 3.53 |
| L4H | 3.58 |
| L4Q | 4.32 |
| L4E | 4.34 |
| L4C | 3.29 |
| L4N | 4.23 |
| L4K | 4.49 |
| L4S | 4.06 |
| L4I | 3.18 |
| L4V | 3.74 |
| L4D | 4.53 |
| L4F | 3.5 |
| L4P | 4.61 |
| L4R | 4.24 |
| L4T | 3.81 |
| L4M | 4.27 |
| L4A | 4.69 |
